The supplement of paper PMC7877785
± gives the uncertainty stated by the source.

Assay: self-splicing fitness, log relative to wild type (ln ratio); higher = more splicing; Tetrahymena group I intron in knt gene, E. coli kanamycin selection, DiMSum; sequences stand for … in CUCUCU…GGAGGGAAAAGUUAUCAGGCAUGCACCUGGUAGCUAGUCUUUAAACCAAUAGAUUGCAUCGGUUUAAAAGGCAAGACCGUCAAAUUGCGGGAAAGGGGUCAACAGCCGUUCAGUACCAAGUCUCAGGGGAAACUUUGAGAUGGCCUUGCAAAGGGUAUGGUAAUAAGCUGACGGACAUGGUCCUAACCACGCAGCCAAGUCCUAAGUCAACAGAUCUUCUGUUGAUAUGGAUGCAGUUCACAGACUAAAUGUCGGUCGGGGAAGAUGUAUUCUUCUCAUAAGAUAUAGUCGGACCUCUCCUUAAUGGGAGCUAGCGGAUGAAGUGAUGCAACACUGGAGCCGCUGGGAACUAAUUUGUAUGCGAAAGUAUAUUGAUUAGUUUUGGAGUACUCGUGGUCG
In short: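 Library with all eight P1ex-region intron nucleotides randomised, intron inside the knt kanamycin-resistance gene on pET-22b(+), in E. coli BL21(DE3). Cells grew overnight at 37°C or 30°C on LB agar with or without 25 μg/mL kanamycin (plus 100 μg/mL carbenicillin, 50 μM IPTG, 0.2% rhamnose), in six replicate transformations. Pooled colonies were amplicon-sequenced on Illumina HiSeq 2500. DiMSum fitness is the error-weighted combination of wild-type-normalised replicate fold changes, kanamycin versus none.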

UAUAAGCAAUAUUACGCGGA
self-splicing fitness (ln) (30 °C): -2.14 ± 0.18 | self-splicing fitness (ln) (37 °C): -0.954 ± 0.16

GACGAGCAAUAUUACGCUGU
self-splicing fitness (ln) (30 °C): -3.17 ± 0.3 | self-splicing fitness (ln) (37 °C): -2.9 ± 0.33

UUCGAGCAAUAUUACGGAGG
self-splicing fitness (ln) (30 °C): -4.27 ± 0.34 | self-splicing fitness (ln) (37 °C): -1.47 ± 0.24

GCCCAGCAAUAUUACGUAUU
self-splicing fitness (ln) (30 °C): -2.02 ± 0.066 | self-splicing fitness (ln) (37 °C): -0.786 ± 0.074

ACAUAGCAAUAUUACGGAUA
self-splicing fitness (ln) (30 °C): -1.75 ± 0.17 | self-splicing fitness (ln) (37 °C): -2.34 ± 0.21

GAUAAGCAAUAUUACGUUCU
self-splicing fitness (ln) (30 °C): -1.8 ± 0.14 | self-splicing fitness (ln) (37 °C): -2.58 ± 0.29

CUUCAGCAAUAUUACGUUAC
self-splicing fitness (ln) (30 °C): -3.35 ± 0.28 | self-splicing fitness (ln) (37 °C): -2.27 ± 0.27

ACGCAGCAAUAUUACGAGGU
self-splicing fitness (ln) (30 °C): -3.55 ± 0.17 | self-splicing fitness (ln) (37 °C): -2.27 ± 0.16

ACAUAGCAAUAUUACGAGUA
self-splicing fitness (ln) (30 °C): -3.54 ± 0.43 | self-splicing fitness (ln) (37 °C): -1.8 ± 0.23

AUAAAGCAAUAUUACGAAAG
self-splicing fitness (ln) (30 °C): -2.01 ± 0.12 | self-splicing fitness (ln) (37 °C): -1.25 ± 0.14

UACGAGCAAUAUUACGCGUC
self-splicing fitness (ln) (30 °C): -1.91 ± 0.13 | self-splicing fitness (ln) (37 °C): -2.3 ± 0.19

CCGUAGCAAUAUUACGAUCG
self-splicing fitness (ln) (30 °C): 0.0338 ± 0.098 | self-splicing fitness (ln) (37 °C): 0.353 ± 0.12

AGUUAGCAAUAUUACGGUGC
self-splicing fitness (ln) (30 °C): -3.15 ± 0.17 | self-splicing fitness (ln) (37 °C): -2.44 ± 0.2

GUUCAGCAAUAUUACGCUGA
self-splicing fitness (ln) (30 °C): -2.16 ± 0.24 | self-splicing fitness (ln) (37 °C): -2.43 ± 0.31

UAAGAGCAAUAUUACGAAUG
self-splicing fitness (ln) (30 °C): -2.32 ± 0.17 | self-splicing fitness (ln) (37 °C): -1.52 ± 0.25

UGAAAGCAAUAUUACGCUAU
self-splicing fitness (ln) (30 °C): -3.32 ± 0.23 | self-splicing fitness (ln) (37 °C): -1.54 ± 0.17

CGCAAGCAAUAUUACGGGUU
self-splicing fitness (ln) (30 °C): -4.62 ± 0.3 | self-splicing fitness (ln) (37 °C): -2.7 ± 0.2

CGCGAGCAAUAUUACGUCGU
self-splicing fitness (ln) (30 °C): -3.51 ± 0.23 | self-splicing fitness (ln) (37 °C): -3.58 ± 0.31

CUUAAGCAAUAUUACGAGGU
self-splicing fitness (ln) (30 °C): -1.3 ± 0.14 | self-splicing fitness (ln) (37 °C): -3.09 ± 0.26

UCAAAGCAAUAUUACGAUUC
self-splicing fitness (ln) (30 °C): -3.67 ± 0.27 | self-splicing fitness (ln) (37 °C): -2.63 ± 0.28

UGGCAGCAAUAUUACGUCGU
self-splicing fitness (ln) (30 °C): -2.65 ± 0.099 | self-splicing fitness (ln) (37 °C): -1.22 ± 0.096

AUGUAGCAAUAUUACGGCAC
self-splicing fitness (ln) (30 °C): -1.59 ± 0.18 | self-splicing fitness (ln) (37 °C): 0.329 ± 0.18

AGAAAGCAAUAUUACGGCUA
self-splicing fitness (ln) (30 °C): -0.324 ± 0.12 | self-splicing fitness (ln) (37 °C): 0.117 ± 0.13

CAACAGCAAUAUUACGUCAA
self-splicing fitness (ln) (30 °C): -3.49 ± 0.13 | self-splicing fitness (ln) (37 °C): -2.08 ± 0.1

UUUCAGCAAUAUUACGUAGA
self-splicing fitness (ln) (30 °C): -1.72 ± 0.076 | self-splicing fitness (ln) (37 °C): -0.283 ± 0.092

CGUCAGCAAUAUUACGUUGA
self-splicing fitness (ln) (30 °C): -3.04 ± 0.26 | self-splicing fitness (ln) (37 °C): -2.26 ± 0.19

ACUCAGCAAUAUUACGUCUC
self-splicing fitness (ln) (30 °C): -1.8 ± 0.072 | self-splicing fitness (ln) (37 °C): -0.51 ± 0.083

GGCCAGCAAUAUUACGGCAC
self-splicing fitness (ln) (30 °C): -1.58 ± 0.15 | self-splicing fitness (ln) (37 °C): -1.41 ± 0.19

UAUAAGCAAUAUUACGGCAC
self-splicing fitness (ln) (30 °C): -1.53 ± 0.17 | self-splicing fitness (ln) (37 °C): -0.422 ± 0.23

AGUCAGCAAUAUUACGCGGU
self-splicing fitness (ln) (30 °C): -2.25 ± 0.15 | self-splicing fitness (ln) (37 °C): -1.45 ± 0.11

CCUCAGCAAUAUUACGGCUG
self-splicing fitness (ln) (30 °C): -3.84 ± 0.21 | self-splicing fitness (ln) (37 °C): -2.36 ± 0.18

CUAGAGCAAUAUUACGACGC
self-splicing fitness (ln) (37 °C): -0.974 ± 0.32

UUCCAGCAAUAUUACGAUAU
self-splicing fitness (ln) (30 °C): -3.13 ± 0.25 | self-splicing fitness (ln) (37 °C): -0.723 ± 0.16

CGAUAGCAAUAUUACGAUGU
self-splicing fitness (ln) (30 °C): -0.22 ± 0.14 | self-splicing fitness (ln) (37 °C): -0.614 ± 0.16

UUGUAGCAAUAUUACGCGCA
self-splicing fitness (ln) (30 °C): -0.824 ± 0.17 | self-splicing fitness (ln) (37 °C): 0.43 ± 0.19

UAUUAGCAAUAUUACGGCAC
self-splicing fitness (ln) (30 °C): -1.88 ± 0.21 | self-splicing fitness (ln) (37 °C): -0.983 ± 0.35

AUAUAGCAAUAUUACGGGCU
self-splicing fitness (ln) (30 °C): -2.22 ± 0.17 | self-splicing fitness (ln) (37 °C): -1.6 ± 0.21

UAUGAGCAAUAUUACGACGC
self-splicing fitness (ln) (37 °C): -1.38 ± 0.32

GGAGAGCAAUAUUACGGGUC
self-splicing fitness (ln) (30 °C): -1.54 ± 0.15 | self-splicing fitness (ln) (37 °C): -1.53 ± 0.2

CGAUAGCAAUAUUACGAUUC
self-splicing fitness (ln) (30 °C): -3.87 ± 0.39 | self-splicing fitness (ln) (37 °C): -0.777 ± 0.17

GCUAAGCAAUAUUACGGAGA
self-splicing fitness (ln) (30 °C): -3.1 ± 0.21 | self-splicing fitness (ln) (37 °C): -2.49 ± 0.23

CUUGAGCAAUAUUACGAGAG
self-splicing fitness (ln) (37 °C): -1.44 ± 0.24

UCCGAGCAAUAUUACGGCAU
self-splicing fitness (ln) (30 °C): -2.13 ± 0.13 | self-splicing fitness (ln) (37 °C): -1.62 ± 0.097

UUUUAGCAAUAUUACGGUGG
self-splicing fitness (ln) (30 °C): -1.24 ± 0.084 | self-splicing fitness (ln) (37 °C): -1.16 ± 0.13

GGGAAGCAAUAUUACGUGGA
self-splicing fitness (ln) (30 °C): -2 ± 0.17 | self-splicing fitness (ln) (37 °C): -2.34 ± 0.29

GCCAAGCAAUAUUACGGCUU
self-splicing fitness (ln) (30 °C): -5.36 ± 0.34 | self-splicing fitness (ln) (37 °C): -3.31 ± 0.19

CUAAAGCAAUAUUACGGUGA
self-splicing fitness (ln) (30 °C): -4.11 ± 0.2 | self-splicing fitness (ln) (37 °C): -1.6 ± 0.14

UGUGAGCAAUAUUACGCCGA
self-splicing fitness (ln) (30 °C): -3.5 ± 0.39 | self-splicing fitness (ln) (37 °C): -1.77 ± 0.27
